Patent US5198419A, “Formulated medicines for enhancing the efficacy of beta-lactam antibiotics in prophylaxis and treatment against infectious disease due to pathogenic bacteria” (Immuno Japan Inc., priority 1989, dated 1993)
Entries after “also recorded” stand apart in the source; their conditions may differ.

B1: lactoferrin: bovine lactoferrin, the native one derived from cheese whey with 28.5% iron-saturation (protein, UniProt P24627 20-708, looked up)
Lactotransferrin: APRKNVRWCTISQPEWFKCRRWQWRMKKLGAPSITCVRRAFALECIRAIAEKKADAVTLDGGMVFEAGRDPYKLRPVAAEIYGTKESPQTHYYAVAVVKKGSNFQLDQLQGRKSCHTGLGRSAGWIIPMGILRPYLSWTESLEPLQGAVAKFFSASCVPCIDRQAYPNLCQLCKGEGENQCACSSREPYFGYSGAFKCLQDGAGDVAFVKETTVFENLPEKADRDQYELLCLNNSRAPVDAFKECHLAQVPSHAVVARSVDGKEDLIWKLLSKAQEKFGKNKSRSFQLFGSPPGQRDLLFKDSALGFLRIPSKVDSALYLGSRYLTTLKNLRETAEEVKARYTRVVWCAVGPEEQKKCQQWSQQSGQNVTCATASTTDDCIVLVLKGEADALNLDGGYIYTAGKCGLVPVLAENRKSSKHSSLDCVLRPTEGYLAVAVVKKANEGLTWNSLKDKKSCHTAVDRTAGWNIPMGLIVNQTGSCAFDEFFSQSCAPGADPKSRLCALCAGDDQGLDKCVPNSKEKYYGYTGAFRCLAEDVGDVAFVKNDTVWENTNGESTADWAKNLNREDFRLLCLDGTRKPVTEAQSCHLAVAPNHAVVSRSDRAAHVKQVLLHQQALFGKNGKNCPDKFCLFKSETKNLLFNDNTECLAKLGGRPTYEEYLGTEYVTAIANLKKCSTSPLLEACAFLTR
modifications: 28.5% iron-saturated
notes: bovine lactoferrin, the native one derived from cheese whey with 28.5% iron-saturation
B2: hololactoferrin: 100% ferric ion saturated lactoferrin (protein, UniProt P24627 20-708, looked up)
Lactotransferrin: B1 Lactotransferrin
modifications: 100% ferric iron saturated
notes: 100% ferric ion saturated lactoferrin

Key:
[1] = bovine lactoferrin, oral; cited from earlier work
[2] = tested on: Staphylococcus aureus 209P; test: Example 9: time-schedule of lactoferrin administration and efficacy of amoxicillin; format: in vivo, mice, ddY; details: lactoferrin dosed from 12 hours before to three hours after the injection
Description: (§1) For ED50 values, a range of amounts of antibiotics is given in the examples (e.g., penicillin G: 0.4, 0.2, 0.1, 0.05 mg/mouse). To calculate the ED50, groups of mice in the monotherapy groups and groups of mice in the combined therapy groups received the indicated amount of antibiotic (e.g., one group received 0.4 mg/mouse of penicillin G, one group received 0.2 mg/mouse of penicillin G, one group received 0.1 mg/mouse of penicillin G, one group received 0.05 mg/mouse of penicillin G).
The effect of time-schedule of lactoferrin administration on the potentiation of antibiotic efficacy was examined using an experimental model similar to Example 1. Male ddY mice (n=10), five weeks old, weighing an average of 21.9 g, were used in this experiment. On day 0 all the mice were intraperitoneally injected with 1.2×10^5 CFU/mouse of Staphylococcus aureus 209P. Amoxicillin ([…], 0.625 mg/mouse) was orally given one hour after the injection.

[3] = tested on: Klebsiella pneumoniae strain 3K25; test: Example 8: dose-response relationship of potentiation of cefpodoxime efficacy by oral lactoferrin; format: in vivo, mice, ddY
Description: as §1
The dose-response relationship of the potentiation of the antibiotic efficacy by lactoferrin was determined using the same experimental infection system as described in Example 1. Male ddY mice, five weeks of age, weighing approximate 20.3 g, were randomly allocated into groups (n=10); the first group was assigned to the cefpodoxime control (5 mg/mouse). The mice were intraperitoneally injected with pneumobacillus, Klebsiella pneumoniae strain 3K25, 3×10^5 per mouse. One hour after the injection, the antibiotic cefpodoxime (1, 0.5, 0.25 and 0.125 mg/mouse) was orally given in 0.2 ml of physiological saline.

[4] = tested on: Klebsiella pneumoniae strain 3K25; test: Example 2: experimental infection in mice, cefpodoxime with or without apolactoferrin; format: in vivo, strain ICR; details: lactoferrin treated control (iron free apolactoferrin 0.4 mg p.o.)
Description: as §1
Sixty male mice, strain ICR, five weeks of age, weighing 19.3±1.1 g (mean body weight±the standard deviation) were randomly allocated into ten groups (n=6), and intraperitoneally injected with pneumobacilli, Klebsiella pneumoniae strain 3K25, 5×10^5 CFU/mouse. One hour after the injection, the first group was orally given 0.2 ml of physiological saline, the second group orally given iron free apolactoferrin (0.4 mg) in 0.2 ml of saline, the third through the sixth groups were orally given cefpodoxime (4, 2, 1, and 0.5 mg/mouse) in 0.2 ml saline, and the seventh through the tenth groups orally given the admixture of cefpodoxime (4, 2, 1, and 0.5 mg/mouse) and apolactoferrin (0.4 mg) in 0.2 ml of saline. Mice were fed ad libitum and observed for a week under the same conditions as described in Example 1.

[5] = tested on: Klebsiella pneumoniae strain 3K25; test: Example 5: experimentally infected fed and fasted mice, cefpodoxime with or without native lactoferrin; format: in vivo, strain ICR; details: cefpodoxime
Description: as §1
Male mice, strain ICR, five weeks old, weighing an average of 21.6 g, were randomly allocated into sixteen groups (n =6). During the next 24 hours, eight groups were allowed free access to diet and water, while the other eight groups were fasted overnight. On the next day, all the mice were injected with 1.4×10^6 CFU/mouse of Klebsiella pneumoniae strain 3K25. The minimal lethal dose of this bacterium is […], and thus the injected dose was 1,000 times greater than the minimal lethal dose. Immediately after the injection, the fed groups were orally given cefpodoxime (10, 5, 2.5, and 1.25 mg/mouse) simultaneously with or without native lactoferrin (0.2 mg/mouse). The fasted groups also were orally given cefpodoxime (10, 5, 2.5, and 1.25 mg/mouse) simultaneously with or without native lactoferrin (0.2 mg/mouse).

[6] = tested on: Klebsiella pneumoniae 3K25; test: Example 7: experimental infection in mice, cefaclor with or without native lactoferrin; format: in vivo, strain ddY; details: simultaneous oral beta-lactam antibiotics with lactoferrin one hour after i.p. injection (as shown in Table 3)
[7] = tested on: pathogenic bacteria; test: Potentiation of beta-lactam antibiotics by lactoferrin at the whole animal level (general statements); format: in vivo
Description: Co-administration of lactoferrin with beta-lactam antibiotics greatly reduces the antibiotic requirement, that is, 1/2 to 1/6 of the amount of the antibiotics required in monotherapy in combination with lactoferrin (combined therapy) show the same curative effects as the antibiotic treatment alone (monotherapy). Oral administration of lactoferrin is an effective route, and the dose of lactoferrin required for this potentiation is 0.5-100 mg/kg and the optimum dose may be 1-10 mg/kg.
Apolactoferrin can be utilized as a raw material to prepare lactoferrin with desired degrees of iron-saturation by adding calculated amounts of ferric ions in the presence of carbonium anions. […] Therefore, lactoferrins with various degrees of iron-saturation can be successfully utilized in this invention. The efficacy potentiation of beta-lactam antibiotics by lactoferrin is independent of the degree of the iron-saturation of lactoferrin.
When lactoferrin is orally dosed to potentiate the efficacy of beta-lactam antibiotics, either the combined formulation with the antibiotics or the formulation containing lactoferrin alone as an active ingredient can be successfully used. When lactoferrin is dosed separately from the antibiotics, the timing of the dosing is very important. The potentiating effect is the strongest when lactoferrin is given from six hours before to one hour after the antibiotic administration.

[8] = Stability of bovine lactoferrin powder; format: physicochemical
Text: The stability of bovine lactoferrin powder is also not affected by the degree of iron-saturation. […] Much care should be taken to avoid lactoferrin denaturation, especially denaturation by heat, in any formulating process. Due to its high stability, it is readily processed into mixed formulations with beta-lactam antibiotics for oral administration in any proportion, for example, freely mixed with lactose, cellulose, cellulose derivatives, magnesium stearate, and talc. One of the best ways to make lactoferrin liquid formulations, such as tincture and syrup, is adjustment of the pH to pH 3.1-4.0 by the addition of lactic acid to avoid bacterial contamination, then add paraaminobenzoic acid derivatives as preservatives against fungal contamination, and filtration through membrane filters (e.g., with pore size of 0.2 μm) into aseptic bottles.

[9] = tested on: Escherichia coli #11; test: Example 6: experimental infection in mice, ampicillin with or without apolactoferrin; format: in vivo, strain ddY; details: simultaneous administration of lactoferrin with ampicillin
Description: as §1
Male mice, strain ddY, five weeks old, weighing an average of 21.5 g, were randomly allocated into groups (n=10), and they were intraperitoneally injected with Escherichia coli #11, 1.2×10^6 CFU/mouse. Immediately after the injection, the untreated control group was orally given 0.2 ml of distilled water, the second through the fifth groups were treated once orally by ampicillin (8, 4, 2 and 1 mg/mouse), and the sixth through the ninth groups with ampicillin (4, 2, 1 and 0.5 mg/mouse) plus apolactoferrin (1 mg/mouse) in 0.2 ml of distilled water. The mice were fed ad libitum and observed for one week under the same conditions as described in Example 1. […] It is apparent from the results that lactoferrin not only potentiates the efficacy of the cephalosporin class but also the penicillin class of antibiotics.

[10] = tested on: Klebsiella pneumoniae strain 3K25; test: Example 1: experimental infection in mice, cefpodoxime with or without native lactoferrin; format: in vivo, strain ICR; details: lactoferrin alone 0.4 mg/mouse p.o.; within 24 hours / one day after injection
Description: as §1
Sixty male mice, strain ICR, four weeks of age, body weight 19±1.0 g (mean±the standard deviation) were randomly divided into ten groups (n=6); the first group was assigned to the untreated control, the second group to the lactoferrin treated control group, the third through the sixth groups to the cephalosporin treated controls, and the seventh through the tenth groups to the combined treatment group of cephalosporin and lactoferrin. The mice were intraperitoneally injected with pneumobacillus, Klebsiella pneumoniae strain 3K25, 5×10^6 colony forming units (CFU) per mouse. The antibiotics used were orally active cephalosporin or cefpodoxime, and the bovine lactoferrin was the native one derived from cheese whey with 28.5% iron-saturation. […]

[11] = tested on: Klebsiella pneumoniae strain 3K25; test: Example 3: experimental infection in mice, cefaclor with or without hololactoferrin; format: in vivo, strain ICR; details: hololactoferrin alone 0.4 mg/mouse p.o.
Description: as §1
Sixty male mice, strain ICR, five weeks of age, weighing 21.3±1.5 g (mean±the standard deviation) were randomly allocated into ten groups (n=6), and intraperitoneally injected with Klebsiella pneumoniae strain 3K25, 1×10^6 CFU/mouse. One hour after the injection, the first group was orally given 0.2 ml of physiological saline, the second group orally given hololactoferrin (100% ferric ion saturated lactoferrin, 0.4 mg/mouse), the third through the sixth groups orally given cefaclor (2.0, 1.0, 0.5 and 0.25 mg/mouse each) in 0.2 ml of saline, and the seventh through the tenth groups orally given cefaclor (2.0, 1.0, 0.5 and 0.25 mg/mouse each) and hololactoferrin (100% iron saturated lactoferrin, 0.4 mg/mouse) in 0.2 ml of saline. The mice were fed ad libitum and observed for one week under the same conditions as described in Example 1.

| Molecule | excretion in intact form in feces [1] | resistance to gastrointestinal digestion [1] | potentiation of amoxicillin's efficacy [2] | potentiation of antibiotic efficacy ([3]; lactoferrin doses from 50 to 0.05 mg per mouse, cefpodoxime) | lactoferrin dose at which potentiation reaches a plateau ([3]; with cefpodoxime) [mg per mouse] | mortality within 24 hours [4] | rate of potentiation of antibiotic efficacy ([5]; fasted state) | rate of potentiation of antibiotic efficacy ([5]; fed state) | potentiation of the antibiotic efficacy versus antibiotic treatment alone [6] [fold] | effect of the degree of iron-saturation on potentiation of beta-lactam antibiotics ([7]; 100%, 28% and 0% iron-saturated lactoferrin) | potentiating effect by timing of lactoferrin dosing ([7]; 12 hours before or six hours after the antibiotic administration) | potentiating effect by timing of lactoferrin dosing ([7]; from six hours before to one hour after the antibiotic administration) | effect of the degree of iron-saturation on stability [8] | stability ([8]; room temperature) | potentiation of ampicillin efficacy in vivo [9] | mortality [10] | mortality within 24 hours [11] |
| --- | --- | --- | --- | --- | --- | --- | --- | --- | --- | --- | --- | --- | --- | --- | --- | --- | --- |
| B1 | considerable amounts are excreted in intact form in feces | highly resistant to gastrointestinal digestion | significantly potentiated | significantly potentiated the antibiotic efficacy at the same magnitude regardless of the dose | 0.05 | All the mice died within 24 hours | five fold | three fold | 2.8 | does not affect the potentiation | significant but less potent effect | the strongest | not affected | very stable at room temperature | eight fold | all mice in those groups died by one day post-injection; also recorded: died within 24 hours | – |
| B2 | – | – | – | – | – | – | – | – | – | – | – | – | – | – | – | – | died within 24 hours |
